This is an account of results in patent publication US9885709B2, “Determination of a midregional proadrenomedullin partial peptide in biological fluids for diagnostic purposes, and immunoassays for carrying out such a determination” (B.R.A.H.M.S. GMBH, priority 2003, dated 2018).

The nature of this series: Stability investigation of mid-proAM in sepsis sera stored at room temperature. The format is in vitro ADME. An excerpt: For examining the question as to whether problems are likely in a measurement of mid-proAM because of insufficient stability of the mid-proAM in a sample or measuring solution, 20 sepsis sera were each measured in a fresh state and after storage for 3 days at room temperature. […] This proven stability of mid-proAM is a major advantage in terms of handling aspects for diagnosis.

Where “and” joins values, the source holds several entries; their conditions need not be identical. Equal values may be shown once.

Turning to “mid-proAM: peptide which contains the amino acids 45-92 of pre-proAM or consists thereof (SEQ ID NO:3); endogenous analyte, also synthesized as standard (ELRMSSSYPTGLADVKAGPAQTLIRPQDMKGASRSPEDSSPDAARIRV; listed as Homo sapiens)”, the immunoreactivity after storage result (20 sepsis sera, storage for 3 days at room temperature) is listed as “virtually unchanged”. Where the note is “Day 3 value as percent of Day 0 value, individual sepsis serum, 3 days at room temperature”, the Change is 92.7% and 95.7% and 109.6% and 102.8% and 96.4% and 99.9% and 106.3% and 102.1% and 95.2% and 110.7% and 80.0% and 105.5% and 102.2% and 103.4% and 89.5% and 94.1% and 98.8% and 98.1% and 97.0% and 95.4%. Moreover, for the setting “individual sepsis serum (one patient), after storage for 3 days at room temperature”, the “mid-proAM Day = 3” value was 1.0 nmol/l and 1.2 nmol/l and 2.1 nmol/l (2×) and 2.7 nmol/l (2×) and 3.1 nmol/l and 4.9 nmol/l and 5.9 nmol/l and 3.4 nmol/l and 4.6 nmol/l and 2.4 nmol/l and 1.3 nmol/l and 1.5 nmol/l (2×) and 1.8 nmol/l (2×) and 2.0 nmol/l and 6.1 nmol/l and 3.2 nmol/l. Besides, the “mid-proAM Day = 0” value (individual sepsis serum (one patient), measured in a fresh state) was 1.1 nmol/L and 1.3 nmol/L and 1.9 nmol/L and 2.6 nmol/L and 2.8 nmol/L and 3.1 nmol/L and 4.6 nmol/L and 5.8 nmol/L and 3.6 nmol/L and 4.2 nmol/L and 3.0 nmol/L and 1.2 nmol/L and 1.5 nmol/L and 1.7 nmol/L and 2.0 nmol/L and 2.1 nmol/L and 6.2 nmol/L and 3.3 nmol/L and 2.2 nmol/L and 1.6 nmol/L.
